According to patent US20240252606A1 (CHANGCHUN BCHT BIOTECHNOLOGY, published 2024):

Target: the molecule itself
Assay: native gel electrophoresis, self-assembly

B1: lysine-modified norovirus capsid P protein PP-3K (other)
chain: MGKPFSVPILTVEEMTNSRFPIPLEKLFTGPSSAFVVQPQNGRCTTDGVLLGTTQLSPVNICTFRGDVTHIAGKTQNYTMNLASQNWNNYDPTEEIPAPLGTPDFVGRIQGVLTQTTRRDGSTRGHKATVSTGSVHFTPKLGSVQFSTDTSKNDFETGQNTRFTPVGVVQDGKSTTHQNEPQQWVLPDYSGRDSHNVHLAPAVAPTFPGEQLLFFRSTMPGCSGYPNMNLDCLLPQEWVQHFYQESAPAQSDVALLRFVNPDTGRVLFECKLHKSGYVTVAHTGQHDLVIPPNGYFRFDSWVNQFYTLAPMGNGAGRRRAL
notes: self-assembles into dodecamers and tetracosamers
- binding result: binds

B2: cysteine-modified norovirus capsid P protein PP-3C (other)
chain: MGKPFSVPILTVEEMTNSRFPIPLEKLFTGPSSAFVVQPQNGRCTTDGVLLGTTQLSPVNICTFRGDVTHIAGCQNYTMNLASQNWNNYDPTEEIPAPLGTPDFVGRIQGVLTQTTRRDGSTRGHKATVSTGSVHFTPKLGSVQFSTDTCNDFETGQNTRFTPVGVVQDCSTTHQNEPQQWVLPDYSGRDSHNVHLAPAVAPTFPGEQLLFFRSTMPGCSGYPNMNLDCLLPQEWVQHFYQESAPAQSDVALLRFVNPDTGRVLFECKLHKSGYVTVAHTGQHDLVIPPNGYFRFDSWVNQFYTLAPMGNGAGRRRAL
notes: as for B1
- binding result: binds
